# Article doi:10.1101/847806 (bioRxiv, 2019)
# Legend:
# [1] = biological target: OTUB1 (C91S), catalytically inactive mutant (UniProt Q96FW1 1-271, C91S); test: ITC
# OTUB1 wild-type = OTUB1 wild-type (UniProt Q96FW1 1-271); test: ITC
# Sequence of OTUB1 wild-type (Q96FW1 whole entry): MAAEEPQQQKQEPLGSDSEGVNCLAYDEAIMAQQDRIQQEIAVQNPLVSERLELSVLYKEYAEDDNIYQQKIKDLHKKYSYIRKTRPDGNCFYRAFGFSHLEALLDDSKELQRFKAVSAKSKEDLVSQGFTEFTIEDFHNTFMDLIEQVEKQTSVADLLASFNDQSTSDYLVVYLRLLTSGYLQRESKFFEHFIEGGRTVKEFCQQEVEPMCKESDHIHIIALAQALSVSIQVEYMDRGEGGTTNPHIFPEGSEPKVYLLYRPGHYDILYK
# Sequence of OTUB1 (C91S), catalytically inactive mutant (Q96FW1 whole entry C91S): as the sequence (Q96FW1 whole entry) above, with C91S counted along it
binding result [1],binding result (OTUB1 wild-type),Kd [1] [µM],Binder
binds,binds,,UBE2D1 (enzyme) not shown
binds,,,"UBE2E1 (enzyme, human, UniProt P51965 1-193, looked up) MSDDDSRASTSSSSSSSSNQQTEKETNTPKKKESKVSMSKNSKLLSTSAKRIQKELADITLDPPPNCSAGPKGDNIYEWRSTILGPPGSVYEGGVFFLDITFTPEYPFKPPKVTFRTRIYHCNINSQGVICLDILKDNWSPALTISKVLLSICSLLTDCNPADPLVGSIATQYMTNRAEHDRMARQWTKRYAT"
,,8.1,"UBE2N (enzyme, human, UniProt P61088 1-152, looked up) MAGLPRRIIKETQRLLAEPVPGIKAEPDESNARYFHVVIAGPQDSPFEGGTFKLELFLPEEYPMAAPKVRFMTKIYHPNVDKLGRICLDILKDKWSPALQIRTVLLSIQALLSAPNPDDPLANDVAEQWKTNEAQAIETARAWTRLYAMNNI"
